The target in this test is Flag-tagged full length HDAC1 (UniProt Q13547 1-482). Briefly: co-IP.
Sequence of Flag-tagged full length HDAC1 (Q13547 whole entry): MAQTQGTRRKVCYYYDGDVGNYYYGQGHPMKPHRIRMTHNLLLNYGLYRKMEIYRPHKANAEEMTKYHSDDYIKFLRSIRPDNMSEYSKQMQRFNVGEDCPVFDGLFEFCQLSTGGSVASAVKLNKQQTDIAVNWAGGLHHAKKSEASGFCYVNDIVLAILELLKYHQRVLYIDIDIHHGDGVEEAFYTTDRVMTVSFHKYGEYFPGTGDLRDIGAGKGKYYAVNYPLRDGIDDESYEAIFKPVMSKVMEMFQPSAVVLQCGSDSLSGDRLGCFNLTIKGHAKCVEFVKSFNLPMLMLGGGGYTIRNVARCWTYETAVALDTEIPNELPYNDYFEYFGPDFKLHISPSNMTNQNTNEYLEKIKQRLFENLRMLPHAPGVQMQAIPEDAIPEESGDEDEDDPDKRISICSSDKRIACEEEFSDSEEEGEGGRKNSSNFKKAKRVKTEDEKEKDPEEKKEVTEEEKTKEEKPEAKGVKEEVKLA

B1: GFP-p25 (full length p25, overexpressed in HEK293T cells) (domain or fragment)
chain: not shown
With B1, the “fold interaction against p35” value was over 12 fold.

Values taken from publication PMC2912147 (Neuron, 2008).
